These results are taken from paper PMC11739670 (European Journal of Immunology, 2024).

Several values for one entry are separate records, joined by “and”; a condition that tells them apart may be missing. Equal values may be shown once.

Settings in all cases: both partners purified
In assay [1] the target is T1, MHCI-related protein 1 (MR1) with β2m, loaded with 5-(2-oxopropylideneamino)-6-d-ribitylaminouracil (human, UniProt Q95460 23-302; P61769 21-119, biotin on the Avi-tag (BirA ligase)).
T1 construct: MR1 heavy chain, human; beta-2 microglobulin; Small-molecule cargo: 5-OP-RU; Same protein chains as Dm12 and Dm13; they differ in the cargo only; also called MR1-5OPRU; not shown: Avi-tag, C-terminal, kept
Put plainly: SPR; BIAcore T200, CM5 chip with streptavidin; biotinylated pMHCI, MR1 or CD1 captured; serial dilution of CD8-Fc fusion injected; 25°C, PBS with 0.005% Tween 20; steady-state responses, 1:1 Langmuir fit.

Assay [2] deals with T2, MHCI-related protein 1 (MR1) with β2m, loaded with 6-formylpterin (human, UniProt Q95460 23-302; P61769 21-119, biotin on the Avi-tag (BirA ligase)).
T2 construct: MR1 heavy chain, human; beta-2 microglobulin; Small-molecule cargo: 6-formylpterin; Same protein chains as Dm11 and Dm13; they differ in the cargo only; also called MR1-6FP; not shown: Avi-tag, C-terminal, kept
Described as above.

The target in assay [3] is T3, MHCI-related protein 1 (MR1) with β2m, loaded with 5-formyl salicylic acid (human, UniProt Q95460 23-302; P61769 21-119, biotin on the Avi-tag (BirA ligase)).
T3 construct: MR1 heavy chain, human; beta-2 microglobulin; Small-molecule cargo: 5-formyl salicylic acid; Same protein chains as Dm11 and Dm12; they differ in the cargo only; also called MR1-5FSA; not shown: Avi-tag, C-terminal, kept
Described as above.

Assay [4] addresses HLA-A*01:01 with peptide … (human | , biotin on the Avi-tag (BirA ligase)). The description is as above.
For assay [5], the target named is HLA-A*02:01 with peptide … (human | , biotin on the Avi-tag (BirA ligase)). The assay is described as above.
Assay [6] has the same target. The description is as above. The source holds these as a separate data set.
The target of assay [7] is HLA-A*03:01 with peptide … (human | , biotin on the Avi-tag (BirA ligase)). The description is as above.
The target of assay [8] is HLA-A*01:01 peptide-MHC class I (biotinylated pMHCI) (human | , biotin on the Avi-tag (BirA ligase)). The experiment in a line: SPR; biotinylated ligands (pMHCI, MR1, CD1) captured on streptavidin coupled to a CM5 chip; serial dilution of each CD8-Fc fusion injected; steady-state responses, 1:1 Langmuir fit; BIAcore T200, 25°C, PBS with 0.005% Tween 20.
Assay [9] addresses HLA-A*02:01 peptide-MHC class I (biotinylated pMHCI) (human | , biotin on the Avi-tag (BirA ligase)). The assay is described as above.
Assay [10] deals with T4, MHCI-related protein 1 (MR1) with β-2 microglobulin, biotinylated, loaded with model ligands (human | , UniProt Q95460 23-292; P61769 21-119, biotin on the Avi-tag (BirA ligase)).
T4 construct: MR1 heavy chain, human; β-2 microglobulin; Small-molecule cargoes: 5-(2-oxopropylideneamino)-6-d-ribitylaminouracil, 6-formylpterin, 5-formyl salicylic acid; not shown: Avi-tag, C-terminal, kept
Described as above.

In general, Kd refers to a measure of binding affinity in units of concentration.

B1: soluble human CD8αβ-Fc heterodimer (Fc fusion)
chain 1: not shown
chain 2: LQQTPAYIKVQTNKMVMLSCEAKISLSNMRIYWLRQRQAPSSDSHHEFLALWDSAKGTIHGEEVEQEKIAVFRDASRFILNLTSVKPEDSGIYFCMIVGSPELTFGKGTQLSVVDFLPTTAQPTKKSTLKKRVCRLPRPETQKGPLCSP
notes: CD8 alpha extracellular domain, human, Uniprot P01732, residues 22-182; CD8 beta extracellular domain, human, Uniprot P10966, residues 22-170; Cloned in pFUSE-hIgG1e3 behind a mouse kappa light-chain secretion signal; source: ExpiCHO, purified (protein A, gel filtration); copies: 1 + 1
For B1, the equilibrium dissociation constant (Kd) is 228 µM and 233 µM in assay [1]; 250 µM and 220 µM in assay [2]; 267 µM and 285 µM in assay [3]; 101 µM in assay [4]; 238 µM in [5]; 255 µM and 244 µM in [6]. In assay [7], this molecule yielded a Kd of 147 µM.

B2: soluble human CD8αβ-Fc heterodimer (Fc fusion)
chain 1: not shown
chain 2: B1 chain 2
notes: CD8α extracellular domain, human, Uniprot P01732, residues 22-182; CD8β extracellular domain, human, Uniprot P10966, residues 22-170; Cloned into pFUSE-hIgG1e3 downstream of a mouse kappa light-chain secretion signal, subcloned into pcDNA3.1; source: ExpiCHO, purified (protein A, gel filtration on Superdex 200); copies: 1 + 1
Take B2: the equilibrium dissociation constant (Kd) is 107 µM in assay [8]; 189 µM and ~230 µM in assay [9]; roughly 250 µM in assay [10].
